Data from patent US20150086553A1 (SAMSUNG ELECTRONICS, published 2015).

B1: scFv N32 (scFv)
scFv: EVQLLESGGGLVQPGGSLRLSCAASGFTFSNYAMSWVRQAPGKGLEWVSGIYPNSGSNTYYADSVKGRFTISRDNSKNTLYLQMNSLRAEDTAVYYCARRPTLFDYWGQGTLVTVGSGGGGSGGGGSGGGGSQSVLTQPPSASGTPGQRVTISCTGSSSNIGSNSVNWYQQLPGTAPKLLIYSDSHRPSGVPDRFSGSKSGTSASLAISGLQSEDEADYYCATWDDSLNGYVFGGGTKLTVLG
notes: also called clone C9
B2: scFv F4 (scFv)
scFv: EVQLLESGGGLVQPGGSLRLSCAASGFTFSGYYMSWVRQAPGKGLEWVSSISPSGSSIYYADSVKGRFTISRDNSKNTLYLQMNSLRAEDTAVYYCAKGSPGFDYWGQGTLVTVSSGGGGSGGGGSGGGGSQSVLTQPPSASGAPGQRVTISCSGSSFNIGSNDVSWYQQLPGTAPKLLIYSDSHRPSGVPDRFSGSKSGTSASLAISGLQSEDEADYYCGSWDYSLSAYVFGGGTKLTVLG
B3: scFv F6 (scFv)
scFv: EVQLLESGGGLVQPGGSLRLSCAASGFTFSNYAMSWVRQAPGKGLEWVSSISSNSGNKYYADSVKGRFTISRDNSKNTLYLQMNSLRAEDTAVYYCAKATLGMDHIHAYSAYGMDVWGQGTLVTVSSGGGGSGGGGSGGGGSQSVLTQPPSASGTPGQRATISCTGSSSNIGSNSVSWYQQLPGTAPKLLIYANSNRPSGVPDRFSGSKSGTSASLAISGLRSEDEADYYCAAWDDSLNAYVFGGGTKLTVLG
notes: also called clone C5
B4: scFv F5 (scFv)
scFv: EVQLLESGGGLVQPGGSLRLSCAASGFTFSDYAMSWVRQAPGKGLEWVSGISYGGGNTYYADSVKGRFTISRDNSKNTLYLQMNSLRAEDTAVYYCAKRLGSFDYWGQGTLVTVSSGGGGSGGGGSGGGGSQSVLTQPPSASGTPGRRVTISCTGTSSNIGSNYVSWYRQLPGTAPKLLIYAGNHRPSGVPDRFSGSKSGTSASLAISGLRSEDEADYYCGSWDSSLSAYVFGGGTKLTVLG
notes: also called clone B5
B5: scFv F10 (scFv)
scFv: EVQLLESGGGLVQPGGSLRLSCAASGFTFSDYSMSWVRQAPGKGLEWVSVISPDSSNTYYADSVKGRFTISRDNSKNTLYLQMNSLRAEDTAVYYCAKVTGTCGPRSCYYYDAMDVWGQGTLVTVSSGGGGSGGGGSGGGGSQSVLTQPPSASGTPGQRVTISCSGSSSNIGSNAVSWYQQLPGTAPKLLIYYNSHRPSGVPDRFSGPKSGTSASLAISGLRSEDEADYYCATWDSSLNGYVFGGGTKLTVLG
B6: scFv N43 (scFv)
scFv: EVQLLESGGGLVQPGGSLRLSCAASGFTFSDYSMGWVRQAPGRGLEWVSGIYPSGGNTYYADSVKGRFTISRDNSKNTLYLQMNSLRAEDTAVYYCAKRPSRFDYWGQGTLVAVSSGGGGSGGGGSGGGGSQSVLTQPPSASGTPGQRVTISCTGSSSNIGNNDVNWYQQLPGTAPKLLIYSNSHRPSGVPDRFSGSKSGTSASLAISGLRSEDEADYYCGTWDDSLNGYVFGGGTKLTVLG
B7: scFv N314 (scFv)
scFv: EVQLLESGGGLVQPGGSLRLSCAASGFTFGGYAMSWVRQAPGKGLEWVSGIYPGGGSTYYADSVKGRFTISRDNSKNTLYLQMNSLRAEDTAVYYCARRLTIFDYWGQGTLVTVSSGGGGSGGGGSGGGGSQSVLTQPPSASGTPGQRVTISCSGSSSNIGNNDVTWYQQLPGTAPKLLIYSDSHRPSGVPDRFSGSKSGTSASLAISGLRSEDEADYYCGTWDDSLSGYVFGGGTKLTVLG
notes: also called clone G11
B8: scFv F8 (scFv)
scFv: EVQLLESGGGLVQPGGSLRLSCAASGFTFSSYSMSWVRQAPGKGLEWVSGISPGSGSIYYADSVKGRFTISRDNSKNTLYLQMNSLRAEDTAVYYCARRIHPFDYWGQGTLVAVSSGGGGSGGGGSGGGGSQSVLTQPPSASGTPGQRVTISCTGSSSNIGNNDVSWYQQLPGTAPKLLIYSDNQRPSGVPGRFSGSKSGTSASLAISGLRSEDEADYYCGAWDSSLNAYVFGGGTKLTVLG
notes: also called clone G3
B9: scFv N34 (scFv)
scFv: EVQLLESGGGLVQPGGSLRLSCAASGFTFSNYAMSWVRQAPGKGLEWVSAIYPGGGSIYYADSVKGRFTISRDNSKNTLYLQMNSLRAEDTAVYYCARRLQIFDYWGQGTLVTVSSGGGGSGGGGSGGGGSQSVLTQPPSASGTPGQRVTISCTGSSSNIGSNNVTWYQQLPGTAPKLLIYSDSHRPSGVPDRFSGSKSGTSASLAISGLQSEDEADYYCGSWDYSLSAYVFGGGTKLTVLG
notes: also called clone C11

target: T1, Annexin A1 on cancer cells (SNU1, MDA-MB-231) (UniProt P04083 2-346, limits assumed); experiment: cell-based ELISA on SNU1 and MDA-MB-231 cells, 250/125/25 ng scFv per well, anti-HA-HRP
T1 construct: whole, on cells; Endogenous protein of cancer cell lines said to overexpress Annexin A1; Assay buffer was HBSS(+) with Ca2+ and Mg2+; also called Annexin A1 on cancer cell surfaces; extracellular portion of Annexin A1 in cancer cells
T1 sequence (looked up): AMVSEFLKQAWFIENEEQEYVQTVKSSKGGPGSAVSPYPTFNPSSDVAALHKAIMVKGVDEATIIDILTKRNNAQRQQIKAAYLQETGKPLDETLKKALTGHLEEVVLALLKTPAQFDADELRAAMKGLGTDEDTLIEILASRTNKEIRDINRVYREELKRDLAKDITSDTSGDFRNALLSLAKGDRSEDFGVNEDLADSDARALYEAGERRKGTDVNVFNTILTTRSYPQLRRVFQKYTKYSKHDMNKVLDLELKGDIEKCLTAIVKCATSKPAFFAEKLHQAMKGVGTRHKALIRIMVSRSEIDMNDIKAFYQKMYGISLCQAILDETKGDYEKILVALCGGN
Description: The selected Annexin A1-binding scFv was analyzed for binding specificity by cell-based ELISA using the cancer cells SNU1 and MDA-MB-231 in which Annexin A1 is overexpressed.
Briefly, after SNU1 (ATCC) and MDA-MB-231 (ATCC) cancer cells were maintained at 37° C. in RPMI-1640 and DMEM, respectively, under a supply of 5% CO₂, they were seeded at a density of 5×10⁵ cells into 96-well plates (NUNC). Purified proteins from the selected scFv (N32, N33, N43, N46, N48, N314, N36, F2, F4, F5, F6, F8, F10) were added in an amount of 250 ng, 125 ng, or 25 ng to each well, incubated at 4° C. for 90 min, and washed twice with HBSS (+) buffer (Gibco, 14025-092; HBSS containing Ca²⁺ and Mg²⁺; calcium chloride (CaCl₂) 12.6 mM, magnesium chloride 4.9 mM, and magnesium sulfate 4 mM). Thereafter, a 1/200 dilution of an anti-HA-HRP secondary antibody (Santa Cruz), configured to detect an HA tag conjugated to an scFv terminus, was added to in an amount of 50 ul to each well, and incubated for 1 hr. A color was developed for 10 min with the addition of 150 ul of the Super AquaBlue ELISA substrate solution (eBioScience) for the HRP of the secondary antibody. Absorbance was read at 405 nm to determine the binding of scFv to the Annexin A1 on cancer cells.

| Binder | binding result |
| --- | --- |
| B1 | binds |
| B2 | binds |
| B3 | binds |
| B4 | binds |
| B5 | binds |
| B6 | binds |
| B7 | binds |
| B8 | binds |

target: T2, full-length Annexin A1 protein (346 amino acids; Accession No. NP-000691.1) (human, UniProt P04083 1-346); experiment: scFv selected by ELISA on plate-coated full-length Annexin A1, anti-HA-HRP detection
T2 construct: Biotinylated for biopanning; coated at 4 ug per well for ELISA
T2 sequence: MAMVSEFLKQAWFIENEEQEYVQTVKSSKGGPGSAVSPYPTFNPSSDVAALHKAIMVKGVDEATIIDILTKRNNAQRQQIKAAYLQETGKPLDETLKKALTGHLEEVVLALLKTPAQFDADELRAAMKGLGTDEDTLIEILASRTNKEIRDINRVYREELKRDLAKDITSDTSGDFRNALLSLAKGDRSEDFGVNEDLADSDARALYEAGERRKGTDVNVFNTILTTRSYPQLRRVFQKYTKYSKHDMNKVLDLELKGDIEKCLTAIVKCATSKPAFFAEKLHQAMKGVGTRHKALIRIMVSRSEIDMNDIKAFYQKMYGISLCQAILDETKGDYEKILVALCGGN

| Binder | binding result |
| --- | --- |
| B2 | binds |
| B3 | binds |
| B4 | binds |
| B5 | binds |
| B8 | binds |

Target: T3, Annexin A1 N-terminal peptide (30 amino acids, biotin conjugated) (biotin conjugated form (position not given))
T3 construct: Synthetic peptide, captured on streptavidin-coated plates for ELISA; also called N-terminal region of Annexin A1; Annexin A1 N-terminus
T3 peptide: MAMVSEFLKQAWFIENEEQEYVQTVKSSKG
Experiment: scFv selected by ELISA on biotinylated N-terminal peptide on streptavidin plates, anti-HA-HRP detection

| Binder | binding result |
| --- | --- |
| B1 | binds |
| B6 | binds |
| B7 | binds |

Target: T3, Annexin A1 N-terminal peptide (30 amino …)
Experiment: scFv selected by ELISA on biotinylated N-terminal peptide

| Binder | binding result |
| --- | --- |
| B9 | binds |
